According to patent US20260022175A1:
pKd: −log10 of the molar value.

How the values were obtained:
Experiment in all cases: SPR Biacore 8k+ 25C, antibody captured, FcγR analyte; mean
[1] = target: cynomolgus monkey FcγRIIIa(R) extracellular domain with His tag (cynomolgus monkey) (UniProt Q8SPW2)
[2] = target: cynomolgus monkey FcγRIIIa(S) extracellular domain with His tag (cynomolgus monkey) (UniProt Q8SPW2)
[3] = target: cynomolgus monkey FcγRIIa1 extracellular domain with His tag (cynomolgus monkey)
[4] = target: cynomolgus monkey FcγRIIa2 extracellular domain with His tag (cynomolgus monkey)
[5] = target: cynomolgus monkey FcγRIIa3 extracellular domain with His tag (cynomolgus monkey)
[6] = target: cynomolgus monkey FcγRIIb extracellular domain with His tag (cynomolgus monkey)
[7] = target: cynomolgus monkey FcγRIa extracellular domain with His tag (cynomolgus monkey)
[8] = target: human FcγRIIIa(F) extracellular domain with C-terminal His tag (human) (UniProt P08637)
[9] = target: human FcγRIIIa(V) extracellular domain with C-terminal His tag (human) (UniProt P08637)
[10] = target: human FcγRIIa(H) extracellular domain with C-terminal His tag (human) (UniProt P12318)
[11] = target: human FcγRIIa(R) extracellular domain with C-terminal His tag (human) (UniProt P12318)
[12] = target: human FcγRIIb extracellular domain with C-terminal His tag (human) (UniProt P31994)
[13] = target: human FcγRIa extracellular domain with C-terminal His tag (human) (UniProt P12314)
human FcγRIa extracellular domain with C-terminal His tag (human), sequence (P12314 other isoform, or with tags, fused parts or gaps): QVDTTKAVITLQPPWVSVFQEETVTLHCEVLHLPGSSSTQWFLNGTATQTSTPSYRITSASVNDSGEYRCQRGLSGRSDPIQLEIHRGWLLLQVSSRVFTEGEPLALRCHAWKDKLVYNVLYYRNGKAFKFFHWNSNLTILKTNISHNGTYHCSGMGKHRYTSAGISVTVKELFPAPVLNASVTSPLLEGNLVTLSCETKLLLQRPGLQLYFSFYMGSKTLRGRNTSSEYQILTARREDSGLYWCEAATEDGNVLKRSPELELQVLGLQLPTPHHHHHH

cynomolgus monkey FcγRIa extracellular domain with His tag (cynomolgus monkey), sequence (P12314 other isoform, or with tags, fused parts or gaps): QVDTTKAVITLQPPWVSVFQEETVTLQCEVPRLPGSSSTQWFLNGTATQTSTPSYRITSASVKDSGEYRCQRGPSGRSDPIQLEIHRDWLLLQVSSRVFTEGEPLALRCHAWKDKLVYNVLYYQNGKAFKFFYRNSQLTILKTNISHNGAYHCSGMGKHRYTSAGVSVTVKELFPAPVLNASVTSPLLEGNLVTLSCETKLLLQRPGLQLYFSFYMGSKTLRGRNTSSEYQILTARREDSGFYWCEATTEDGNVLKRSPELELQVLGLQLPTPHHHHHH
cynomolgus monkey FcγRIIa2 extracellular domain with His tag (cynomolgus monkey), sequence (chain, as listed by the source): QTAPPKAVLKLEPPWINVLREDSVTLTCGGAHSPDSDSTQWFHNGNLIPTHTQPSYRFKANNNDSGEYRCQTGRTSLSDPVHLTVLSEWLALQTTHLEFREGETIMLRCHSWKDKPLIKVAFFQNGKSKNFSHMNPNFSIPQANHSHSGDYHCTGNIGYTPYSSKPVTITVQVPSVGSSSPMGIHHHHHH
human FcγRIIIa(V) extracellular domain with C-terminal His tag (human), sequence (P08637 other isoform, or with tags, fused parts or gaps): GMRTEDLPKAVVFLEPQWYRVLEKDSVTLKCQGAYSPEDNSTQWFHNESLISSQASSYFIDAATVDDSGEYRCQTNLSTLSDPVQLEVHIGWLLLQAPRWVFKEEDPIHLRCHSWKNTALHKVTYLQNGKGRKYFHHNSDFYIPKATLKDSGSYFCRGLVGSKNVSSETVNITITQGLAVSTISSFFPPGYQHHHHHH
cynomolgus monkey FcγRIIb extracellular domain with His tag (cynomolgus monkey), sequence (chain, as listed by the source): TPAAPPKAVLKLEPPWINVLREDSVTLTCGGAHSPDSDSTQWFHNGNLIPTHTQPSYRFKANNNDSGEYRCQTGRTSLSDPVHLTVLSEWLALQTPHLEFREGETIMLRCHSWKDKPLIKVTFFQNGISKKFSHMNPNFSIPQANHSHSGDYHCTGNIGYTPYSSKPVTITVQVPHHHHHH
human FcγRIIa(R) extracellular domain with C-terminal His tag (human), sequence (P12318 34-217 H167R): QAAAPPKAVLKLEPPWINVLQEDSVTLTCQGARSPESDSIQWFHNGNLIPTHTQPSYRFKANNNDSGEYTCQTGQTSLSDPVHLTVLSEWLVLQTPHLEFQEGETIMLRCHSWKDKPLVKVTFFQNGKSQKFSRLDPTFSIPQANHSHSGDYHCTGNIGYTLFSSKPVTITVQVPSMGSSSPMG
cynomolgus monkey FcγRIIa3 extracellular domain with His tag (cynomolgus monkey), sequence (chain, as listed by the source): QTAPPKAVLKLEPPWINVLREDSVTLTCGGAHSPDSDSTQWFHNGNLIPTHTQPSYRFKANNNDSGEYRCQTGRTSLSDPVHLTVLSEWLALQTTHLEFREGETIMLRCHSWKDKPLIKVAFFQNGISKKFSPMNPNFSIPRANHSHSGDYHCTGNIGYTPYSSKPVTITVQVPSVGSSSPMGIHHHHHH
cynomolgus monkey FcγRIIIa(R) extracellular domain with His tag (cynomolgus monkey), sequence (Q8SPW2 other isoform, or with tags, fused parts or gaps): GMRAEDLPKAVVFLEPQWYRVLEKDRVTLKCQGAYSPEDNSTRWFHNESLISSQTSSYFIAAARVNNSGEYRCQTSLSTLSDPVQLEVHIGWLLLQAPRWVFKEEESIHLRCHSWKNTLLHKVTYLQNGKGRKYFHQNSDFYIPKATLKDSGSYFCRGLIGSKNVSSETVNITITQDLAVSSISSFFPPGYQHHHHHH
human FcγRIIIa(F) extracellular domain with C-terminal His tag (human), sequence (P08637 other isoform, or with tags, fused parts or gaps): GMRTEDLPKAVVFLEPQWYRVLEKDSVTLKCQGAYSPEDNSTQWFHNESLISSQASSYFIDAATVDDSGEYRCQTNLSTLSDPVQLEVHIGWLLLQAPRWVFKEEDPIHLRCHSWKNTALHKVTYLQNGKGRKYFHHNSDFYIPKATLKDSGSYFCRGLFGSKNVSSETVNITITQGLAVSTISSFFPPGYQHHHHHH
human FcγRIIa(H) extracellular domain with C-terminal His tag (human), sequence (P12318 34-217): as the sequence (P12318 34-217 H167R) above, with R134H counted along it
human FcγRIIb extracellular domain with C-terminal His tag (human), sequence (P31994 other isoform, or with tags, fused parts or gaps): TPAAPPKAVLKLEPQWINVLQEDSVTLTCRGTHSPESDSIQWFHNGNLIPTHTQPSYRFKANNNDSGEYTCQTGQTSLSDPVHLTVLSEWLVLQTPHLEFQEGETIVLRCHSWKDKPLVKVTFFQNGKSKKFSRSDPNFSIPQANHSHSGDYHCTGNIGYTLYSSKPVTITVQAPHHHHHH
cynomolgus monkey FcγRIIa1 extracellular domain with His tag (cynomolgus monkey), sequence (chain, as listed by the source): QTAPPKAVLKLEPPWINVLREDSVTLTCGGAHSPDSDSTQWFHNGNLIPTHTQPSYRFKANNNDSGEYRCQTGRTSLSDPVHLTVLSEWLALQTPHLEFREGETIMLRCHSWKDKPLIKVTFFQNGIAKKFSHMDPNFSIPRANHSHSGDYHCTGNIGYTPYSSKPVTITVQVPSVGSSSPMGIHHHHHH
cynomolgus monkey FcγRIIIa(S) extracellular domain with His tag (cynomolgus monkey), sequence (Q8SPW2 other isoform, or with tags, fused parts or gaps): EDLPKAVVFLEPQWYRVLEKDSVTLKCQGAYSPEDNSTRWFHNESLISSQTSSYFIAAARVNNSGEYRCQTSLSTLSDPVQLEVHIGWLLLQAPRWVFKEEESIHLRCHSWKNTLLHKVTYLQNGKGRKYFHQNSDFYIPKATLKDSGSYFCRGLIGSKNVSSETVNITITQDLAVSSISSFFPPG

- pKd [1]: 6.24
- pKd [2]: 6.30
- pKd [3]: 5.17
- pKd [4]: 5.12
- pKd [5]: 4.40
- pKd [6]: 5.25
- pKd [7]: 10.96
- pKd [8]: 5.04
- pKd [9]: 5.99
- pKd [10]: 5.90
- pKd [11]: 5.73
- pKd [12]: 4.78
- pKd [13]: 10.04
Substance: Tremfya (Janssen Pharmaceutical K.K) (antibody)
